# Results from patent US8728980B2, “Peptide microarray and method of use” (The Regents of the University of California, priority 2011, dated 2014).
# Non-standard residues stand in square brackets, D forms with d. Primed or numbered codes have the meaning given here. No end group written: not given here. Me3 = trimethylation of the lysine side chain; Me3(3) = trimethyl (trimethylated lysine); Lys(Me3) = C[N+](C)(C)CCCC[C@H](N)C(=O)O
# Molecular target: T1, Polycomb protein chromodomain (Drosophila melanogaster, UniProt P26017)
# T1 construct: The chromodomain (a.a. 1-90) of Polycomb protein was expressed as GST-tagged fusion protein; made in house
# T1 sequence (P26017 1-90): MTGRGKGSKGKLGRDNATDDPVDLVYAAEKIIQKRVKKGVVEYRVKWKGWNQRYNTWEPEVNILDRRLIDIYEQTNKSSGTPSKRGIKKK
# Assay: Peptide microarray binding of GST-tagged Polycomb chromodomain
# Design: dose or concentration left out as unconfirmed
# Settings: Binder if at least two of three spots pass p-value cutoff 0.001 from background
# Source text: There are a total of 46 histone peptide sequences (9 a.a. long) with a single lysine-trimethylation site which are conserved between the human and fruit fly H2, H3 and H4 proteins (Table II). These were screened for Polycomb protein chromodomain binding by peptide microarray. Each peptide sequence was screened as triplets, and the fluorescence intensity was quantified with background subtraction individually for each spot from the microarray images by ImageJ^9 and the whole data set was fit to a mixed Gaussian distribution model (FIG. 8, Table III).
# Twelve out of the 46 sequences were identified as positive binders under these criteria. Ten of these microarray-identified binders also yielded high mutation matrix score in an independent prediction (Table IV).
# The chromodomain (a.a. 1-90) of Polycomb protein was expressed as GST-tagged fusion protein and purified as described in [65]. The purity of the protein was examined by SDS-PAGE electrophoresis followed by both Coomassie staining and western blot using an Anti-GST-HRP conjugate (Santa Cruz Biotechnology). The concentration of purified protein was determined by BCA assay (Amresco). A total of 46 trimethylated histone peptides were synthesized by Sigma Aldrich (desalted, mass spectrometry checked). The peptides were then printed as triplets onto glass slides (ArrayIt), together with a Cy3 marker and an anti-GST (mouse monoclonal) antibody (Thermo) as references.
# The peptide microarray was rinsed with TBST buffer (25 mM Tris, 125 mM NaCl, 0.05% Tween-20, pH 8) followed by blocking with 5% non-fat milk in TBST (room temperature 1 hour or 4° C. overnight). The slide was then incubated at 4° C. with Polycomb-GST fusion protein at a final concentration of […] in 5% non-fat milk/TBST for 6 hours. After washing three times for 10 minutes each with TBST, the slide was incubated with an anti-GST mouse monoclonal IgG antibody (Thermo) at a final concentration of 1 μg/mL in 5% non-fat milk/TBST and shaken gently for 1 hour at room temperature. A secondary anti-mouse IgG Dylight-488 conjugated antibody (Thermo) was added to a final concentration of 0.1 μg/mL after three more cycles of 10 minutes washing with TBST. The slide was shaken for 1 hr at room temperature and washed three times with TBST.
# The dried microarray slides were scanned using a Hamamatsu NanoZoomer 2.0HT Slide Scanning System (Neuroscience Light Microscopy Facility, UCSD). Data quantification were processed using the microarray processing software ImageJ^9, where the fluorescent intensity of a microarray spot was defined as its own intensity minus the background intensity around it on the scanned image.
row,Sequence,Array Verification
1,QAVLLPKKT (QAVLLPKK(Me3)T),NonBinder
2,"MAGGKAGKD (not fully specified (residue 8); also: trimethylated lysine, site not given here)",NonBinder
3,"EETRGVLKV (EETRGVL[Lys(Me3)]V) [9-residue histone peptide, H4_DROME, trimethylated lysine site 59]",NonBinder
4,"STELLIRKL (STELLIRK(Me3(3))L) [9-residue histone peptide, H3_DROME, trimethylated lysine site 64]",NonBinder
5,"REIRRYQKS (REIRRYQK(Me3(3))S) [9-residue histone peptide, H3_DROME, trimethylated lysine site 56]",Binder
6,"REIAQDFKT (REIAQDFK(Me3(3))T) [9-residue histone peptide, H3_DROME, trimethylated lysine site 79]",NonBinder
7,RIHRLLRKG (RIHRLLRK(Me3(3))G),Binder
8,"PRKQLATKA (PRKQLATK(Me3)A) [9-residue histone peptide, H3_DROME, trimethylated lysine site 23]",Binder
9,"KRVTIMPKD (not fully specified (residue 8); also: trimethylated lysine, site not given here) [9-residue histone peptide, H3_DROME, trimethylated lysine site 122]",NonBinder
10,"DSGKAKAKA (not fully specified (residue 8); also: trimethylated lysine, site not given here)",Binder
11,"IQAVLLPKK (not fully specified (residue 8); also: trimethylated lysine, site not given here)",Binder
12,"KAGKDSGKA (not fully specified (residue 8); also: trimethylated lysine, site not given here)",NonBinder
13,"KGGKGLGKG (not fully specified (residue 8); also: trimethylated lysine, site not given here) [9-residue histone peptide, H4_DROME, trimethylated lysine site 12]",NonBinder
14,"PATGGVKKP (not fully specified (residue 8); also: trimethylated lysine, site not given here) [9-residue histone peptide, H3_DROME, trimethylated lysine site 37]",NonBinder
15,"PSTGGVKKP (also: trimethylated Lys, site not given here) [9-residue histone peptide, H33_DROME, trimethylated lysine site 37]",NonBinder
16,"IYIYKVLKQ (also: trimethylated Lys, site not given here)",NonBinder
17,GVIPHIHKS (GVIPHIHK(Me3(3))S),NonBinder
18,"MDVVYALKR (MDVVYALK(Me3(3))R) [9-residue histone peptide, H4_DROME, trimethylated lysine site 91]",Binder
19,PDTGISSKA (PDTGISSK(Me3(3))A),NonBinder
20,"GGAKRHRKV (also: trimethylated lysine, site not given here) [9-residue histone peptide, H4_DROME, trimethylated lysine site 20]",Binder
21,LLPGELAKH (LLPGELAK(Me3(3))H),NonBinder
22,"ARKSTGGKA (also: trimethylated Lys, site not given here) [9-residue histone peptide, H3_DROME, trimethylated lysine site 14]",NonBinder
23,"DNIQGITKP (DNIQGIT[Lys(Me3)]P) [9-residue histone peptide, H4_DROME, trimethylated lysine site 31]",NonBinder
24,RNDEELNKL (RNDEELNK(Me3(3))L),NonBinder
